Source: doi:10.1101/2022.02.08.479534, “FoxP3 can fold into two distinct dimerization states with divergent functional implications for T cell homeostasis”

Tests used:
FoxP3ΔN;NFAT1 (394-680) [1] = target: T1, FoxP3ΔN;NFAT1 (394-680) (Mus musculus;Mus musculus, UniProt Q99JB6;Q60591 188-423;394-680, |); experiment: restriction enzyme protection; 1.6 uM FoxP3, 0.4 uM NFAT; XhoI and BamHI protected, EcoRI accessible; EMSA: 0.2 uM DNA, 20 mM Tris pH 7.5, 150 mM NaCl, 1.5 mM MgCl2, 2 mM DTT, 30 min at 4 C; anti-HA bead DNA pull-down: 20 min at room temperature; the EMSA IR-FKHM4g length is taken as 31 bp; settings: protein: recombinant;recombinant; tags: His6-NusA cleaved (HRV3C);His6-NusA cleaved; blunt
T1 sequence 1: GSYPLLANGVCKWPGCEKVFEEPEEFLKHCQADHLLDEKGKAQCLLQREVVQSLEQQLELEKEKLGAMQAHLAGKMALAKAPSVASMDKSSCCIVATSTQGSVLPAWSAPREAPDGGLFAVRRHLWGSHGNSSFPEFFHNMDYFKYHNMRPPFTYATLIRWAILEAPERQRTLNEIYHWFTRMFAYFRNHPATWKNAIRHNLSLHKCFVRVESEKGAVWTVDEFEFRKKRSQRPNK
T1 sequence 2: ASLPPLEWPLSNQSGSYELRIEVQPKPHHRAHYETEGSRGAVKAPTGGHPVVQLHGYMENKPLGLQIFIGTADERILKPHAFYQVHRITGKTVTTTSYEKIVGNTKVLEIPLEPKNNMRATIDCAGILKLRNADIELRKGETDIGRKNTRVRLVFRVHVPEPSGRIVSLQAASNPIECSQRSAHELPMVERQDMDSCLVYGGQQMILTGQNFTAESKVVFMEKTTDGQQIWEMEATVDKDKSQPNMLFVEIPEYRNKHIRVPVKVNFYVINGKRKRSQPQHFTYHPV

MBP-FoxP3ΔN [2] = target: T2, MBP-FoxP3ΔN (Mus musculus, UniProt Q99JB6 188-423); experiment: MBP pull-down; EMSA: 0.2 uM DNA, 20 mM Tris pH 7.5, 150 mM NaCl, 1.5 mM MgCl2, 2 mM DTT, 30 min at 4 C; anti-HA bead DNA pull-down: 20 min at room temperature; the EMSA IR-FKHM4g length is taken as 31 bp; settings: protein: recombinant; tags: His6-MBP; blunt
T2 sequence: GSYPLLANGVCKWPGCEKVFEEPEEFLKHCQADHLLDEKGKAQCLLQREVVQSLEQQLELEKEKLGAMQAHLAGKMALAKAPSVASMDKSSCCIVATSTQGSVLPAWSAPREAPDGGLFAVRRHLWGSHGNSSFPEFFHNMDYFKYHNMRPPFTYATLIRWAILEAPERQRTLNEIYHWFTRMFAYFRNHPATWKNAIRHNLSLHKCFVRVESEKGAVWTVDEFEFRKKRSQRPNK

MBP-FoxP3ΔN [3] = target: T2, MBP-FoxP3ΔN; experiment: MBP pull-down; not efficiently bound; EMSA: 0.2 uM DNA, 20 mM Tris pH 7.5, 150 mM NaCl, 1.5 mM MgCl2, 2 mM DTT, 30 min at 4 C; anti-HA bead DNA pull-down: 20 min at room temperature; the EMSA IR-FKHM4g length is taken as 31 bp; settings: protein: recombinant; tags: His6-MBP; blunt
FoxP3ΔN;NFAT1 (394-680) [4] = target: T1, FoxP3ΔN;NFAT1 (394-680); experiment: restriction enzyme protection; 3.2 uM FoxP3, 0.4 uM NFAT; XhoI protected, BamHI accessible; EMSA: 0.2 uM DNA, 20 mM Tris pH 7.5, 150 mM NaCl, 1.5 mM MgCl2, 2 mM DTT, 30 min at 4 C; anti-HA bead DNA pull-down: 20 min at room temperature; the EMSA IR-FKHM4g length is taken as 31 bp; settings: protein: recombinant;recombinant; tags: His6-NusA cleaved (HRV3C);His6-NusA cleaved; blunt
NusA-FoxP2RBR-forkhead = target: T3, NusA-FoxP2RBR-forkhead (Mus musculus, UniProt P58463 447-588); experiment: EMSA; equal to IR-FKHM4g; EMSA: 0.2 uM DNA, 20 mM Tris pH 7.5, 150 mM NaCl, 1.5 mM MgCl2, 2 mM DTT, 30 min at 4 C; anti-HA bead DNA pull-down: 20 min at room temperature; the EMSA IR-FKHM4g length is taken as 31 bp; settings: protein: recombinant; tags: His6-NusA; blunt
T3 sequence: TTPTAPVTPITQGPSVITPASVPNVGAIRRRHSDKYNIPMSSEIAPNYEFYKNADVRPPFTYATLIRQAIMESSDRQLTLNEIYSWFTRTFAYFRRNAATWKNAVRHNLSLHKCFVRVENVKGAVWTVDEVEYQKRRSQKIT

NusA-FoxP4RBR-forkhead = target: T4, NusA-FoxP4RBR-forkhead (Mus musculus, UniProt Q9DBY0 418-577); experiment: as above; settings: protein: recombinant; tags: His6-NusA; blunt
T4 sequence: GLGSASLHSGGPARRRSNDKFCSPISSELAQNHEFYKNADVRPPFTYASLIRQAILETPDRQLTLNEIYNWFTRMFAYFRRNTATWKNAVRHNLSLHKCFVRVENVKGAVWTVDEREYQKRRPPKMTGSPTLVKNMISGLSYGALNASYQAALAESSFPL

NusA-FoxP1RBR-forkhead = target: T5, NusA-FoxP1RBR-forkhead (Mus musculus, UniProt P58462 433-579); experiment: as above; settings: protein: recombinant; tags: His6-NusA; blunt
T5 sequence: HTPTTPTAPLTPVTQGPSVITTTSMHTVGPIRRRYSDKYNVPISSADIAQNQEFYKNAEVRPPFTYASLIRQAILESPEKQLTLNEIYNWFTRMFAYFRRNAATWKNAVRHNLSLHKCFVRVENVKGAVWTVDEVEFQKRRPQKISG

FoxP3ΔN = target: T6, FoxP3ΔN (Mus musculus, UniProt Q99JB6 188-423); experiment: EMSA; up to 0.8 uM; nearly undetectable; EMSA: 0.2 uM DNA, 20 mM Tris pH 7.5, 150 mM NaCl, 1.5 mM MgCl2, 2 mM DTT, 30 min at 4 C; anti-HA bead DNA pull-down: 20 min at room temperature; the EMSA IR-FKHM4g length is taken as 31 bp; settings: protein: recombinant; tags: His6-NusA cleaved (HRV3C); chain copies: 2; blunt
T6 sequence: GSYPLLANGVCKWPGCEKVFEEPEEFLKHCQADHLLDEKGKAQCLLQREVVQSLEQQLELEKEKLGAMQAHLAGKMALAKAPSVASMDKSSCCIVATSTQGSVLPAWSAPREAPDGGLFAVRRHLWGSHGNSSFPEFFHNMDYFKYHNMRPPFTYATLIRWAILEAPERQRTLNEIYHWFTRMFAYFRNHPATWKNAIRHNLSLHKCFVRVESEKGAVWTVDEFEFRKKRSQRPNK

MBP-FoxP3ΔN [5] = target: T2, MBP-FoxP3ΔN; experiment: MBP pull-down; strong; EMSA: 0.2 uM DNA, 20 mM Tris pH 7.5, 150 mM NaCl, 1.5 mM MgCl2, 2 mM DTT, 30 min at 4 C; anti-HA bead DNA pull-down: 20 min at room temperature; the EMSA IR-FKHM4g length is taken as 31 bp; settings: protein: recombinant; tags: His6-MBP; blunt

B1: IR-FKHM4g (47bp) (dsDNA)
DNA 1: TTAGGAAAATTTGTTTACTCGAGTAAACAGTGGATCCGAATTCATAT
DNA 2: ATATGAATTCGGATCCACTGTTTACTCGAGTAAACAAATTTTCCTAA
binding result (FoxP3ΔN;NFAT1 (394-680) [1]): binds

B2: FKHM-seq5 (dsDNA)
DNA 1: TTAGGAAAATTTGTTTACTCGAAATGCAAAA
DNA 2: TTTTGCATTTCGAGTAAACAAATTTTCCTAA
binding result (MBP-FoxP3ΔN [2]): binds

B3: FKHM-seq3 (dsDNA)
DNA 1: ATTTGTTTACTCGAGATGCATCAT
DNA 2: ATGATGCATCTCGAGTAAACAAAT
binding result (MBP-FoxP3ΔN [2]): binds

B4: IR-seq9 (dsDNA)
DNA 1: TTAGGAAAATTTGTTTTATCGATAAAACAAA
DNA 2: TTTGTTTTATCGATAAAACAAATTTTCCTAA
binding result (MBP-FoxP3ΔN [3]): no binding

B5: IR-seq1 (dsDNA)
DNA 1: ATTTCGCGTCTCGAGACGCGAAAT
DNA 2: ATTTCGCGTCTCGAGACGCGAAAT
binding result (MBP-FoxP3ΔN [2]): no binding

B6: IR-seq3 (dsDNA)
DNA 1: ATGATGCATCTCGAGATGCATCAT
DNA 2: ATGATGCATCTCGAGATGCATCAT
binding result (MBP-FoxP3ΔN [2]): no binding

B7: IR-FKHM11g (54bp) (dsDNA)
DNA 1: TTAGGAAAATTTGTTTACTCGAGTGTACGGTAAACAGTGGATCCGAATTCATAT
DNA 2: ATATGAATTCGGATCCACTGTTTACCGTACACTCGAGTAAACAAATTTTCCTAA
binding result (FoxP3ΔN;NFAT1 (394-680) [4]): binds

B8: IR-seq2 (dsDNA)
DNA 1: ATTTTGCGTCTCGAGACGCAAAAT
DNA 2: ATTTTGCGTCTCGAGACGCAAAAT
binding result (MBP-FoxP3ΔN [2]): no binding

B9: FKHM-seq8 (dsDNA)
DNA 1: TTAGGAAAATTTGTTTACTCGAGGAAACAAA
DNA 2: TTTGTTTCCTCGAGTAAACAAATTTTCCTAA
binding result (MBP-FoxP3ΔN [2]): binds

B10: FKHM-seq11 (dsDNA)
DNA 1: TTAGGAAAATTTGTTTACTCGATTAAACAAA
DNA 2: TTTGTTTAATCGAGTAAACAAATTTTCCTAA
binding result (MBP-FoxP3ΔN [2]): binds

B11: FKHM-seq9 (dsDNA)
DNA 1: TTAGGAAAATTTGTTTACTCGATAAAACAAA
DNA 2: TTTGTTTTATCGAGTAAACAAATTTTCCTAA
binding result (MBP-FoxP3ΔN [2]): binds

B12: IR-seq11 (dsDNA)
DNA 1: TTAGGAAAATTTGTTTAATCGATTAAACAAA
DNA 2: TTTGTTTAATCGATTAAACAAATTTTCCTAA
binding result (MBP-FoxP3ΔN [3]): no binding

B13: IR-seq8 (dsDNA)
DNA 1: TTAGGAAAATTTGTTTCCTCGAGGAAACAAA
DNA 2: TTTGTTTCCTCGAGGAAACAAATTTTCCTAA
binding result (MBP-FoxP3ΔN [3]): no binding

B14: sFKHM (31bp) (dsDNA)
DNA 1: TTAGGAAAATTTGTTTACTCGACGCGGCAAA
DNA 2: TTTGCCGCGTCGAGTAAACAAATTTTCCTAA
binding result (NusA-FoxP2RBR-forkhead): binds
binding result (NusA-FoxP4RBR-forkhead): binds
binding result (NusA-FoxP1RBR-forkhead): binds
binding result (FoxP3ΔN): no binding

B15: Major seq8-seq9 (dsDNA)
DNA 1: GTTTGTTTCCCAGGTAAAACAACC
DNA 2: GGTTGTTTTACCTGGGAAACAAAC
binding result (MBP-FoxP3ΔN [5]): binds

B16: sFKHM (22bp) (dsDNA)
DNA 1: TTAGGAAAATTTGTTTACTCGA
DNA 2: TCGAGTAAACAAATTTTCCTAA
binding result (FoxP3ΔN): no binding

B17: Major FKHM-seq5 (dsDNA)
DNA 1: AAATGTTTACTAGGAATGCAATGA
DNA 2: TCATTGCATTCCTAGTAAACATTT
binding result (MBP-FoxP3ΔN [2]): binds

B18: FKHM-seq1 (dsDNA)
DNA 1: ATTTGTTTACTCGAGACGCGAAAT
DNA 2: ATTTCGCGTCTCGAGTAAACAAAT
binding result (MBP-FoxP3ΔN [2]): binds

B19: FKHM-seq2 (dsDNA)
DNA 1: ATTTGTTTACTCGAGACGCAAAAT
DNA 2: ATTTTGCGTCTCGAGTAAACAAAT
binding result (MBP-FoxP3ΔN [2]): binds

B20: IR-seq5 (dsDNA)
DNA 1: TTAGGAAAATTTTGCATTTCGAAATGCAAAA
DNA 2: TTTTGCATTTCGAAATGCAAAATTTTCCTAA
binding result (MBP-FoxP3ΔN [3]): no binding
